Measurements published in US20160185837A1 (Medimmune Limited, priority 2013, published 2016).

T1: mouse GLP-1 receptor (mGLP-1r) (Mus musculus, UniProt O35659)
T1 construct: expressed in transfected cells; host or cells: HEK293s or CHO cells
T1 sequence (O35659 22-463): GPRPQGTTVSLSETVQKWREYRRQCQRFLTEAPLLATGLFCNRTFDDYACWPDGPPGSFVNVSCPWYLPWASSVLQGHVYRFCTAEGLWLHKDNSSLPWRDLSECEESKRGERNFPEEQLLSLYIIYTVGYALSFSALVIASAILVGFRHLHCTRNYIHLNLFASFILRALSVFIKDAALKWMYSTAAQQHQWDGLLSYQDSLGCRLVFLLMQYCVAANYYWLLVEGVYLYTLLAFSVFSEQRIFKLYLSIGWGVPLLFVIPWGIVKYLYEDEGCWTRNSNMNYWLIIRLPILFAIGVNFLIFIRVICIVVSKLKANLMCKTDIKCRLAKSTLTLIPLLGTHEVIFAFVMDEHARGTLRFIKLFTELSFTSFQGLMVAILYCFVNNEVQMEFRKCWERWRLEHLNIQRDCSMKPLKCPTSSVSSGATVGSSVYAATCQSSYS

T2: human GIP receptor (hGIPr) (Homo sapiens, UniProt P48546)
T2 construct: expressed in transfected cells
T2 sequence (P48546 22-466): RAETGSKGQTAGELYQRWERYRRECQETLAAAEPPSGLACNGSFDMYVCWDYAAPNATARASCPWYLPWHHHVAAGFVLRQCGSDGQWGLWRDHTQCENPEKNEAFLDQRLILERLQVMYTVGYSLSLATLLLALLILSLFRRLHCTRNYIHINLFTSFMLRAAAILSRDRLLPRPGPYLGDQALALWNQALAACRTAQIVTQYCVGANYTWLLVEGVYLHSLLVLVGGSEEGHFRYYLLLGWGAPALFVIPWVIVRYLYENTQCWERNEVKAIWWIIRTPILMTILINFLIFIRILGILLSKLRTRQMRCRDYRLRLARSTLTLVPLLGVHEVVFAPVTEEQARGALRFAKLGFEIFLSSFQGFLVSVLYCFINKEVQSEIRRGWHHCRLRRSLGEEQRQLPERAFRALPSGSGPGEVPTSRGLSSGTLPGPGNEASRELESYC

T3: rat GIP receptor (rGIPr) (Rattus norvegicus, UniProt P43219)
T3 construct: expressed in transfected cells; host or cells: HEK293s or CHO cells
T3 sequence (P43219 19-455): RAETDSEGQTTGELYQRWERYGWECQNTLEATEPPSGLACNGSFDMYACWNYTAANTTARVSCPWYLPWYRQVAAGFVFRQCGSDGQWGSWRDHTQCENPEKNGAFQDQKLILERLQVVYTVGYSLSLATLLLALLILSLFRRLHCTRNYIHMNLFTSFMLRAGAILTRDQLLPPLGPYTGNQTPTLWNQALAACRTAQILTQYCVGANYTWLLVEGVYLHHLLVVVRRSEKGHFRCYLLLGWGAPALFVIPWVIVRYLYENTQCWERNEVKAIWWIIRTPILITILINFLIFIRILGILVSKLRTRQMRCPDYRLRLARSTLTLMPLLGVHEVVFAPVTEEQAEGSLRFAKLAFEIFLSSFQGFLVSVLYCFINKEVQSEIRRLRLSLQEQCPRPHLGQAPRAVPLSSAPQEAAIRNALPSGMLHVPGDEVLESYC

B1: IP088: Fc fusion, IgG1-TM, SEQ ID NO:105; agonist peptide YSEGTFTSDYSKLLEEEAVRLFIEWLVKGP (SEQ ID NO:15) (protein)
chain: YSEGTFTSDYSKLLEEEAVRLFIEWLVKGPAAAGGSGSTASSGSGSATGGGGAATHTCPPCPAPEF
modifications: also: Fc fusion, IgG1-TM
B2: IP367 (protein)
chain: YSEGTFTSDYRILKERQAIDEFIAWLLKGGAAAGGSGSTASSGSGSATGGGGAATHTCPPC

How the values were obtained:
Type in all cases: cell-based
[1] = molecular target: T1, mouse GLP-1 receptor (mGLP-1r); assay: BSA-cAMP assay, cells expressing mouse GLP-1 receptor
In short: (§1)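 EC50 is the midpoint of an unconstrained 4-parameter logistic fit to HTRF cAMP data, expressed as percent of maximal native agonist response, from two separate occasions. Rodent (mouse, rat) GLP-1R- or GIPR-expressing cells were incubated with compound 30 min at room temperature in 0.1% BSA medium, in duplicate.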

[2] = molecular target: T2, human GIP receptor (hGIPr); assay: BSA-cAMP assay, cells expressing human GIP receptor
In short: (§2)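 EC50 came from an unconstrained 4-parameter logistic fit of HTRF cAMP data expressed as percent of maximal native agonist activation, tested on two occasions. Thawed receptor-expressing cells (hGLP-1r, hGIPr at 0.5×10^5 cells/ml) treated 30 min at room temperature in 0.1% BSA-containing medium; two distinct hGIPr lines.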

[3] = molecular target: T4, human GLP-1 receptor (hGLP-1r) (Homo sapiens, UniProt P43220); assay: BSA-cAMP assay, cells expressing human GLP-1 receptor
T4 construct: expressed in transfected cells
In short: as §2

rat GIP receptor (rGIPr) = molecular target: T3, rat GIP receptor (rGIPr); assay: BSA-cAMP assay, cells expressing rat GIP receptor
In short: as §1

T4 sequence (P43220 24-463): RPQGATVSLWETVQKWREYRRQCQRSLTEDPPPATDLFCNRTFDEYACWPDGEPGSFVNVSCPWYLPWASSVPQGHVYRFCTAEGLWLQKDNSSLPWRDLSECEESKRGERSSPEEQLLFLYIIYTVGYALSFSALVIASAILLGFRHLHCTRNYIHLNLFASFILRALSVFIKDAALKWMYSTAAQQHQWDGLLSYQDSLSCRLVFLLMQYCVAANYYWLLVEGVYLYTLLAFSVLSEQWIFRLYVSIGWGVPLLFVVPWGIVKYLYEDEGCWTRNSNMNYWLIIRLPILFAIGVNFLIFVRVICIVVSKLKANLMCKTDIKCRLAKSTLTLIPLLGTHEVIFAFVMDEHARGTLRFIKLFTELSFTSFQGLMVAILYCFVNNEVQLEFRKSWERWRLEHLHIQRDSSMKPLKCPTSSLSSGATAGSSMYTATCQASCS

Molecule | potency for GLP-1r, in words ([1]; mouse receptor) | potency for GIPr, in words ([2]; human receptor) | potency for GLP-1r, in words ([3]; human receptor) | potency for GIPr, in words (rat GIP receptor (rGIPr); rat receptor) | EC50 ([1]; Batch 1, BSA-cAMP assay, read-out: mGLP1r cAMP activity EC50) | EC50 ([2]; Batch 1, BSA-cAMP assay, read-out: hGIPr cAMP activity EC50) | EC50 ([3]; Batch 1, BSA-cAMP assay, read-out: hGLP1r cAMP activity EC50) | EC50 (rat GIP receptor (rGIPr); Batch 1, BSA-cAMP assay, read-out: rGIPr cAMP activity EC50)
B1 | high potency | high potencies | high potency | high potencies |  |  |  | 
B2 |  |  |  |  | 390 nM | 0.057 nM | 4.4 nM | 0.0099 nM
